How the values were obtained:
TGFβ1 [1] = target: T1, TGFβ1 (human, UniProt P01137); test: competition, SPR vs TGFβ-RII
TGFβ3 [2] = target: T2, TGFβ3 (human, UniProt P10600); test: competition, SPR vs TGFβ-RIII
T2 chain: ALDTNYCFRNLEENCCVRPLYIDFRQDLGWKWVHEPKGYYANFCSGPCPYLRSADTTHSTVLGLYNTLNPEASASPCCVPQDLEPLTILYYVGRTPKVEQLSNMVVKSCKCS

TGFβ1 [3] = target: T1, TGFβ1; test: competition, SPR vs TGFβ-RIII
TGFβ2 [4] = target: T3, TGFβ2 (human, UniProt P61812); test: competition, SPR vs TGFβ-RIII
T3 chain: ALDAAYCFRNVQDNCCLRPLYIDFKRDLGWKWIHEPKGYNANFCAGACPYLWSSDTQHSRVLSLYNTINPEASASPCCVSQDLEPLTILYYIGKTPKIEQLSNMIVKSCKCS

TGFβ2 [5] = target: T3, TGFβ2; test: competition, SPR vs TGFβ-RII
TGFβ3 [6] = target: T2, TGFβ3; test: competition, SPR vs TGFβ-RII
TGFβ2 [7] = target: T3, TGFβ2; test: SPR
TGFβ1 [8] = target: T1, TGFβ1; test: SPR
TGFβ3 [9] = target: T2, TGFβ3; test: SPR

Row | Binder | EC50 (TGFβ1 [1]) | EC50 (TGFβ3 [2]) | EC50 (TGFβ1 [3]) | EC50 (TGFβ2 [4]) | EC50 (TGFβ2 [5]) | EC50 (TGFβ3 [6]) | binding result (TGFβ2 [7]) | binding result (TGFβ1 [8]) | binding result (TGFβ3 [9])
1 | XPA.42.068 (antibody, V domains shown) VH: not shown VL: SSELTQPPSVSVAPGEKARITCGGNNIGRKSVHWYQQRPGQAPVVVLYYDRVRPSGIPERFSGSNSGNTATLTITRVEAGDEADYFCQVWDNTSEHVVFGGGTQLTVLG | 2 nM | 1.9 nM | 0.6 nM | 2.4 nM | 2.2 nM | 1.4 nM | – | – | –
2 | XPA.42.681 (antibody, V domains shown) VH: not shown VL: SYVLTQPPSVSVAPGKTARITCGGNNIGFRSVHWYQQKSGQAPVLVIYFDRARPSGIPERFSASNSENTATLTIRRVEAGDEADYYCQVWDSDSDDLVFGGGTQLTVLG | 2.3 nM | 1.1 nM | 1.2 nM | 2.1 nM | 1.7 nM | 1.2 nM | – | – | –
3 | TGFβ-RI (protein) LQCFCHLCTKDNFTCVTDGLCFVSVTETTDKVIHNSMCIAEIDLIPRDRPFVCAPSSKTGSVTTTYCCNQDHCNKIELPTTVKSSPGLGPVEL | – | – | – | – | – | – | no binding | no binding | no binding
4 | XPA.42.089 (antibody, V domains shown) VH: QVQLVQSGAEVKKPGSSVKVSCKASGGTFSSYAISWVRQAPGQGLEWMGGIIPIFGTANYAQKFQGRVTITADESTSTAYMELSSLRSEDTAVYYCARGLWEVRALPSVYWGQGTLVTVSS VL: SYELTQPPSVSVAPGQTARITCGANDIGSKSVHWYQQKAGQAPVLVVSEDIIRPSGIPERISGSNSGNTATLTISRVEAGDEADYYCQVWDRDSDQYVFGTGTKVTVLG | 1.7 nM | 31 nM | 1.2 nM | 1.6 nM | 1.8 nM | 34 nM | – | – | –
